Test results taken from publication PMC12416549 (2024).
Where a chain is given by its changes, count along the chain named. Numbers in names are those of the source.

T1: TNFR1 (Homo sapiens, UniProt P19438)
T1 chain: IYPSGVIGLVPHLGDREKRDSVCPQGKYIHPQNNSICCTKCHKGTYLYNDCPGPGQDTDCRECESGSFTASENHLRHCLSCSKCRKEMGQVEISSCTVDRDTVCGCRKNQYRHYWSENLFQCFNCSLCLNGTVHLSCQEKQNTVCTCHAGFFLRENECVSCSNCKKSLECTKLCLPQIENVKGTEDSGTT

B1: L79P (designed binder)
chain: SMEEEVEKAAKEYEKKKKEAIEKHLEKLKAKDKEAAERFLKELEEAAKEYAKDEAKTMSEEEAKRRAKKYKEKVLLSEPSEEEQKEIKEAEEKLVRTILKYVEEAAK
B2: M58Q (designed binder)
chain: B1 chain with M58Q, P79L
B3: E37N (designed binder)
chain: B1 chain with E37N, P79L
B4: L79I (designed binder)
chain: B1 chain with P79I
B5: E81C (designed binder)
chain: B1 chain with P79L, E81C
B6: A67F (designed binder)
chain: B1 chain with A67F, P79L
B7: E60T (designed binder)
chain: B1 chain with E60T, P79L
B8: R96T (designed binder)
chain: B1 chain with P79L, R96T
B9: A20T (designed binder)
chain: B1 chain with A20T, P79L
B10: E81Y (designed binder)
chain: B1 chain with P79L, E81Y
B11: E82T (designed binder)
chain: B1 chain with P79L, E82T
B12: V95R (designed binder)
chain: B1 chain with P79L, V95R
B13: R38K (designed binder)
chain: B1 chain with R38K, P79L
B14: K18G (designed binder)
chain: B1 chain with K18G, P79L
B15: S59N (designed binder)
chain: B1 chain with S59N, P79L
B16: A105F (designed binder)
chain: B1 chain with P79L, A105F
B17: E83R (designed binder)
chain: B1 chain with P79L, E83R
B18: A90G (designed binder)
chain: B1 chain with P79L, A90G
B19: K52D (designed binder)
chain: B1 chain with K52D, P79L
B20: A9N (designed binder)
chain: B1 chain with A9N, P79L
B21: A30L (designed binder)
chain: B1 chain with A30L, P79L
B22: K23H (designed binder)
chain: B1 chain with K23H, P79L
B23: A47C (designed binder)
chain: B1 chain with A47C, P79L
B24: S59L (designed binder)
chain: B1 chain with S59L, P79L
B25: S77F (designed binder)
chain: B1 chain with S77F, P79L
B26: E42Y (designed binder)
chain: B1 chain with E42Y, P79L
B27: F39G (designed binder)
chain: B1 chain with F39G, P79L
B28: E26K (designed binder)
chain: B1 chain with E26K, P79L
B29: K73M (designed binder)
chain: B1 chain with K73M, P79L
B30: I98L (designed binder)
chain: B1 chain with P79L, I98L
B31: E14D (designed binder)
chain: B1 chain with E14D, P79L
B32: A51F (designed binder)
chain: B1 chain with A51F, P79L
B33: L28A (designed binder)
chain: B1 chain with L28A, P79L
B34: E89M (designed binder)
chain: B1 chain with P79L, E89M
B35: K31T (designed binder)
chain: B1 chain with K31T, P79L
B36: L94S (designed binder)
chain: B1 chain with P79L, L94S
B37: D32E (designed binder)
chain: B1 chain with D32E, P79L
B38: E54Q (designed binder)
chain: B1 chain with E54Q, P79L
B39: E44Q (designed binder)
chain: B1 chain with E44Q, P79L
B40: R96S (designed binder)
chain: B1 chain with P79L, R96S
B41: K52S (designed binder)
chain: B1 chain with K52S, P79L
B42: E14C (designed binder)
chain: B1 chain with E14C, P79L
B43: M2T (designed binder)
chain: B1 chain with M2T, P79L

Target: T1, TNFR1
Test: yeast display SC50

Row | apparent Kd (screen) [nM] | Binder
1 | 7.78 | B1
2 | 11.4 | B2
3 | 0.446 | B3
4 | 1.86 | B4
5 | 0.869 | B5
6 | 18.3 | B6
7 | 1.4 | B7
8 | 1.54 | B8
9 | 0.718 | B9
10 | 0.653 | B10
11 | 0.49 | B11
12 | 7.78 | B12
13 | 10.4 | B13
14 | 0.653 | B14
15 | 1.69 | B15
16 | 3 | B16
17 | 0.539 | B17
18 | 0.49 | B18
19 | 0.446 | B19
20 | 0.869 | B20
21 | 0.593 | B21
22 | 0.49 | B22

Row | apparent Kd (screen) [nM] | Binder
23 | 0.49 | B23
24 | 1.05 | B24
25 | 1.05 | B25
26 | 6.43 | B26
27 | 2.73 | B27
28 | 0.49 | B28
29 | 0.869 | B29
30 | 13.8 | B30
31 | 1.16 | B31
32 | 0.593 | B32
33 | 0.718 | B33
34 | 1.05 | B34
35 | 0.593 | B35
36 | 12.5 | B36
37 | 0.956 | B37
38 | 10.4 | B38
39 | 0.653 | B39
40 | 2.48 | B40
41 | 0.446 | B41
42 | 9.41 | B42
43 | 0.446 | B43
